In PMC5063977 (The Journal of Biological Chemistry, 2016):
Blank lines part the entries; values can stand above or below the substance they belong to.

What was measured:
[1] = target: RAMP2-CLR heterodimer expressed in S. cerevisiae (human) (UniProt Q16602)
[2] = target: RAMP1-CLR heterodimer expressed in S. cerevisiae (human) (UniProt Q16602)
[3] = target: RAMP3-CLR heterodimer expressed in S. cerevisiae (human) (UniProt Q16602)
[4] = target: RAMP2-CLR complex expressed in HEK-293 cells (human) (UniProt Q16602)
[5] = target: RAMP3-CLR complex expressed in HEK-293 cells (human) (UniProt Q16602)
[6] = target: RAMP1-CLR complex expressed in HEK-293 cells (human) (UniProt Q16602)
[7] = target: RAMP2-CLR complex expressed in HEK-293 cells (human) (UniProt Q16602); remark: listed apart in the source
[8] = target: RAMP1-CLR complex expressed in HEK-293S cells (human) (UniProt Q16602)
[9] = target: RAMP3-CLR complex expressed in HEK-293 cells (human) (UniProt Q16602); remark: listed apart in the source
[10] = target: RAMP2-CLR complex expressed in HEK-293S cells (human) (UniProt Q16602)
[11] = target: RAMP1-CLR complex expressed in HEK-293 cells (human) (UniProt Q16602); remark: listed apart in the source
[12] = target: RAMP3-CLR complex expressed in HEK-293S cells (human) (UniProt Q16602)
[13] = target: RAMP2-CLR complex expressed in HEK-293 cells (human) (UniProt Q16602); remark: listed apart in the source
[14] = target: RAMP3-CLR complex expressed in HEK-293 cells (human) (UniProt Q16602); remark: listed apart in the source
[15] = target: RAMP1-CLR complex expressed in HEK-293 cells (human) (UniProt Q16602); remark: listed apart in the source
[16] = target: RAMP1-CLR complex expressed in HEK-293S cells (human) (UniProt Q16602); remark: listed apart in the source
[17] = target: RAMP2-CLR complex expressed in HEK-293S cells (human) (UniProt Q16602); remark: listed apart in the source
[18] = target: RAMP3-CLR complex expressed in HEK-293S cells (human) (UniProt Q16602); remark: listed apart in the source
[19] = system: RAMP-CLR complexes (RAMP1, RAMP2, RAMP3); assay: (Ca^2+)i mobilization with inhibitor pretreatment, HEK-293 cells, all RAMP-CLR complexes; assay type: cell-based, human; settings: HEK-293, any RAMP-CLR complex
Experimental: FIGURE 8. CLR in combination with each RAMP generates receptors that mobilize (Ca^2+)i release when expressed in HEK-293 cells. (Ca^2+)i mobilization was determined from HEK-293 cells transiently transfected with CLR and RAMP1 (n = 5) (A), RAMP2 (n = 5) (B), and RAMP3 (n = 5) (C). […] Data are expressed as percentage of the maximal (Ca^2+)i release as determined using 10 μM ionomycin. To determine the contribution made by different G proteins to the (Ca^2+)i response, cells were preincubated with either PTX (to inhibit Gαi) or YM-254890 (a selective Gαq inhibitor). All values are means ± S.E. of n individual data sets.
HEK-293 cells, provided by Dr. Jügen Müller (University of Aston), were cultured in DMEM supplemented with 10% heat-inactivated FBS and kept at 37 °C in a humidified 95% air, 5% CO2 incubator. HEK-293S cells (a gift from AstraZeneca) were cultured in DMEM supplemented with 8% heat-inactivated FBS and kept at 37 °C in a humidified 95% air, 5% CO2 incubator. HEK-293 cells were transfected with FuGENE 6 (Roche Applied Science) in accordance with the manufacturer's instructions using a 1:3 (w:v) DNA:FuGENE ratio and a 1:1 ratio of RAMP to CLR. HEK-293S cells were seeded into 96-well poly-D-lysine-coated plates at a density of 15,000 cells/well (determined using a Countess^TM cell counter, Invitrogen) 1 day prior to transfection. HEK-293S cells were transiently transfected as described previously ([38]) using a 1:1 ratio of RAMP to CLR. The transfected cell lines were grown for 24–48 h prior to assaying.
Transfected HEK-293 cells were grown to confluence in black, clear bottomed, 96-well plates. […] Ligands were added robotically using a Mithras LB 940 multimode microplate reader in the range of 10 pM to 1 μM, and fluorescence was determined immediately post-injection with an excitation wavelength set to 485 nm and an emission wavelength set to 535 nm. […] Peak magnitude was calculated using five-point smoothing followed by correction against background fluorescence. […]

Sequence of RAMP3-CLR complex expressed in HEK-293 cells (human) (Q16602 23-461, chain 1 of 2): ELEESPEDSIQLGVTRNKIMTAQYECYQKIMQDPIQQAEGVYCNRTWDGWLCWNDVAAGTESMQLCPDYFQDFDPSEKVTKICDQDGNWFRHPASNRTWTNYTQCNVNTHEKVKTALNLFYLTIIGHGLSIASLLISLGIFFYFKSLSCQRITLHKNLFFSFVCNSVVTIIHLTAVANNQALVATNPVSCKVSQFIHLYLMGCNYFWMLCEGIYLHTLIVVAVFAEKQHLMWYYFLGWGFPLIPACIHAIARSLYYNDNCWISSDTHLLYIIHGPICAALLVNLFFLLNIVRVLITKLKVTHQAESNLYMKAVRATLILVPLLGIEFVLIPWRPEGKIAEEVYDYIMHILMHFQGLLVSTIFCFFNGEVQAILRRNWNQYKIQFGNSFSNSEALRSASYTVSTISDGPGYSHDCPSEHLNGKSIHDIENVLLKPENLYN
Sequence of RAMP3-CLR complex expressed in HEK-293 cells (human) (O60896 24-148, chain 2 of 2, further chain): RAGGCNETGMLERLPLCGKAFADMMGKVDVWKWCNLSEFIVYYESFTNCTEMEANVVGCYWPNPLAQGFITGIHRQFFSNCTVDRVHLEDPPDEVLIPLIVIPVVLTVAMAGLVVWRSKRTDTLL
Sequence of RAMP3-CLR heterodimer expressed in S. cerevisiae (human) (Q16602 23-461, chain 1 of 2): as the sequence (Q16602 23-461, chain 1 of 2) above
Sequence of RAMP3-CLR heterodimer expressed in S. cerevisiae (human) (O60896 24-148, chain 2 of 2, further chain): as the sequence (O60896 24-148, chain 2 of 2, further chain) above
Sequence of RAMP2-CLR heterodimer expressed in S. cerevisiae (human) (Q16602 23-461, chain 1 of 2): as the sequence (Q16602 23-461, chain 1 of 2) above
Sequence of RAMP2-CLR heterodimer expressed in S. cerevisiae (human) (O60895 43-175, chain 2 of 2, further chain): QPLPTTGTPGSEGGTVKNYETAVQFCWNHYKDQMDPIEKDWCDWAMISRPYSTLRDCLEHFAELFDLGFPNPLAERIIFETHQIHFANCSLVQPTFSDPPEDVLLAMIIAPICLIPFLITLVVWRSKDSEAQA
Sequence of RAMP1-CLR complex expressed in HEK-293 cells (human) (Q16602 23-461, chain 1 of 2): as the sequence (Q16602 23-461, chain 1 of 2) above
Sequence of RAMP1-CLR complex expressed in HEK-293 cells (human) (O60894 27-148, chain 2 of 2, further chain): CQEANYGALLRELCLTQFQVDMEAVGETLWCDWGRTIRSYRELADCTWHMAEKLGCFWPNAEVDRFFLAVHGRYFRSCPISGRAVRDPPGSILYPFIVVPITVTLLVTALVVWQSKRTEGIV
Sequence of RAMP2-CLR complex expressed in HEK-293 cells (human) (Q16602 23-461, chain 1 of 2): as the sequence (Q16602 23-461, chain 1 of 2) above
Sequence of RAMP2-CLR complex expressed in HEK-293 cells (human) (O60895 43-175, chain 2 of 2, further chain): as the sequence (O60895 43-175, chain 2 of 2, further chain) above
Sequence of RAMP1-CLR heterodimer expressed in S. cerevisiae (human) (Q16602 23-461, chain 1 of 2): as the sequence (Q16602 23-461, chain 1 of 2) above
Sequence of RAMP1-CLR heterodimer expressed in S. cerevisiae (human) (O60894 27-148, chain 2 of 2, further chain): as the sequence (O60894 27-148, chain 2 of 2, further chain) above
Sequence of RAMP3-CLR complex expressed in HEK-293S cells (human) (Q16602 23-461, chain 1 of 2): as the sequence (Q16602 23-461, chain 1 of 2) above
Sequence of RAMP3-CLR complex expressed in HEK-293S cells (human) (O60896 24-148, chain 2 of 2, further chain): as the sequence (O60896 24-148, chain 2 of 2, further chain) above
Sequence of RAMP2-CLR complex expressed in HEK-293S cells (human) (Q16602 23-461, chain 1 of 2): as the sequence (Q16602 23-461, chain 1 of 2) above
Sequence of RAMP2-CLR complex expressed in HEK-293S cells (human) (O60895 43-175, chain 2 of 2, further chain): as the sequence (O60895 43-175, chain 2 of 2, further chain) above
Sequence of RAMP1-CLR complex expressed in HEK-293S cells (human) (Q16602 23-461, chain 1 of 2): as the sequence (Q16602 23-461, chain 1 of 2) above
Sequence of RAMP1-CLR complex expressed in HEK-293S cells (human) (O60894 27-148, chain 2 of 2, further chain): as the sequence (O60894 27-148, chain 2 of 2, further chain) above

pEC50, yeast growth reporter, GPA1/Gαi chimera strain [1]: 7.91 -log10 | pEC50, yeast growth reporter, GPA1/Gαq chimera strain [1]: 7.93 -log10 | pEC50, yeast growth reporter, GPA1/Gαs chimera strain [1]: 8.82 -log10 | pKa (operational model of agonism), yeast growth reporter, GPA1/Gαi chimera strain [1]: 7.75 -log10 | pKa (operational model of agonism), yeast growth reporter, GPA1/Gαq chimera strain [1]: 7.78 -log10 | pKa (operational model of agonism), yeast growth reporter, GPA1/Gαs chimera strain [1]: 8.77 -log10 | pEC50, yeast growth reporter, GPA1/Gαi chimera strain [2]: 8.38 -log10 | pEC50, yeast growth reporter, GPA1/Gαq chimera strain [2]: 7.26 -log10 | pEC50, yeast growth reporter, GPA1/Gαs chimera strain [2]: 8.8 -log10 | pKa (operational model of agonism), yeast growth reporter, GPA1/Gαi chimera strain [2]: 8.2 -log10 | pKa (operational model of agonism), yeast growth reporter, GPA1/Gαq chimera strain [2]: 7.19 -log10 | pKa (operational model of agonism), yeast growth reporter, GPA1/Gαs chimera strain [2]: 8.81 -log10 | pEC50, yeast growth reporter, GPA1/Gαi chimera strain [3]: 7.89 -log10 | pEC50, yeast growth reporter, GPA1/Gαq chimera strain [3]: 7.83 -log10 | pEC50, yeast growth reporter, GPA1/Gαs chimera strain [3]: 8.15 -log10 | pKa (operational model of agonism), yeast growth reporter, GPA1/Gαi chimera strain [3]: 8 -log10 | pKa (operational model of agonism), yeast growth reporter, GPA1/Gαq chimera strain [3]: 7.71 -log10 | pKa (operational model of agonism), yeast growth reporter, GPA1/Gαs chimera strain [3]: 8.1 -log10 | pEC50, cAMP accumulation in HEK-293 cells, with PTX pretreatment [4]: 10.2 -log10 | pEC50, cAMP accumulation in HEK-293 cells, without PTX [4]: 10.3 -log10 | pKa (operational model of agonism), cAMP accumulation in HEK-293 cells, with PTX pretreatment [4]: 9.83 -log10 | pKa (operational model of agonism), cAMP accumulation in HEK-293 cells, without PTX [4]: 10 -log10 | pEC50, cAMP accumulation in HEK-293 cells, with PTX pretreatment [5]: 9.1 -log10 | pEC50, cAMP accumulation in HEK-293 cells, without PTX [5]: 8.98 -log10 | pKa (operational model of agonism), cAMP accumulation in HEK-293 cells, with PTX pretreatment [5]: 8.94 -log10 | pKa (operational model of agonism), cAMP accumulation in HEK-293 cells, without PTX [5]: 8.83 -log10 | pEC50, cAMP accumulation in HEK-293 cells, with PTX pretreatment [6]: 8.14 -log10 | pEC50, cAMP accumulation in HEK-293 cells, without PTX [6]: 7.93 -log10 | pKa (operational model of agonism), cAMP accumulation in HEK-293 cells, with PTX pretreatment [6]: 7.66 -log10 | pKa (operational model of agonism), cAMP accumulation in HEK-293 cells, without PTX [6]: 7.67 -log10 | pEC50, (Ca^2+)i mobilization in HEK-293 cells [7]: 7.86 -log10 | pKa (operational model of agonism), (Ca^2+)i mobilization in HEK-293 cells [7]: 7.45 -log10 | pEC50, (Ca^2+)i mobilization in HEK-293S cells [8]: 7.63 -log10 | pKa (operational model of agonism), (Ca^2+)i mobilization in HEK-293S cells [8]: 7.42 -log10 | pEC50, (Ca^2+)i mobilization in HEK-293 cells [9]: 8.12 -log10 | pKa (operational model of agonism), (Ca^2+)i mobilization in HEK-293 cells [9]: 7.76 -log10 | pEC50, (Ca^2+)i mobilization in HEK-293S cells [10]: 7.68 -log10 | pKa (operational model of agonism), (Ca^2+)i mobilization in HEK-293S cells [10]: 7.39 -log10 | pEC50, (Ca^2+)i mobilization in HEK-293 cells [11]: 7.9 -log10 | pKa (operational model of agonism), (Ca^2+)i mobilization in HEK-293 cells [11]: 7.69 -log10 | pEC50, (Ca^2+)i mobilization in HEK-293S cells [12]: 8.02 -log10 | pKa (operational model of agonism), (Ca^2+)i mobilization in HEK-293S cells [12]: 8.56 -log10 | pEC50, cAMP accumulation in HEK-293 cells [13]: 10.3 -log10 | pKa (operational model of agonism), cAMP accumulation in HEK-293 cells [13]: 9.95 -log10 | pEC50, cAMP accumulation in HEK-293 cells [14]: 8.86 -log10 | pKa (operational model of agonism), cAMP accumulation in HEK-293 cells [14]: 8.5 -log10 | pEC50, cAMP accumulation in HEK-293 cells [15]: 7.92 -log10 | pKa (operational model of agonism), cAMP accumulation in HEK-293 cells [15]: 7.64 -log10 | pEC50, cAMP accumulation in HEK-293S cells, with PTX pretreatment [16]: 8.03 -log10 | pEC50, cAMP accumulation in HEK-293S cells, without PTX [16]: 8.13 -log10 | pEC50, cAMP accumulation in HEK-293S cells, with PTX pretreatment [17]: 9.38 -log10 | pEC50, cAMP accumulation in HEK-293S cells, without PTX [17]: 9.39 -log10 | pEC50, cAMP accumulation in HEK-293S cells, with PTX pretreatment [18]: 9.49 -log10 | pEC50, cAMP accumulation in HEK-293S cells, without PTX [18]: 9.63 -log10
Substance: hAM (peptide)

Substance: pertussis toxin [PTX]
effect of PTX on calcium released in response to the three ligands [19]: no effect
